B1: EIF5 (parent)
chain: KQTIGNSCKACGYRGMLDTHHKLC

Variants of: B1
Experiment: protein stability index of a GFP-peptide fusion (GPS, HEK-293T) (PSI 1-6); higher = more stable
Settings: c terminus: a fixed tail appended
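Note: lentivirally expressed fusions sorted by FACS into six bins by GFP to DsRed ratio, PSI derived from sequencing read proportions per bin multiplied by bin number.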

Row | Variant | protein stability index
1 | HQTIGNSCKACGYRGMLDTHHKLC | 2.95
2 | RQTIGNSCKACGYRGMLDTHHKLC | 3.18
3 | AQTIGNSCKACGYRGMLDTHHKLC | 2.98
4 | LQTIGNSCKACGYRGMLDTHHKLC | 2.9
5 | SQTIGNSCKACGYRGMLDTHHKLC | 3.31
6 | DQTIGNSCKACGYRGMLDTHHKLC | 3.88
7 | VQTIGNSCKACGYRGMLDTHHKLC | 2.95
8 | WQTIGNSCKACGYRGMLDTHHKLC | 3.05
9 | KQTIGNSCKACGYRGMLDTQHKLC | 2.5
10 | KQTIGNSCKACGYRGMLDTVHKLC | 2.15
11 | KQTIGNSCKACGYRGMLDTKHKLC | 2.61
12 | KQTIGNSCKACGYRGMLDTLHKLC | 2.24
13 | KQTIGNSCKACGYRGMLDTDHKLC | 3.64
14 | KQTIGNSCKACGYRGMLDTCHKLC | 2.75
15 | KQTIGNSCKACGYRGMLDTRHKLC | 2.28
16 | KQTIGNSCKACGYMGMLDTHHKLC | 2.97
17 | KQTIGNSCKACGYCGMLDTHHKLC | 4.75
18 | KQTIGNSCKACGYIGMLDTHHKLC | 3.33
19 | KQTIGNSCKACGYNGMLDTHHKLC | 3.04
20 | KQTIGNSCKACGYQGMLDTHHKLC | 3.35
21 | KQTIGNSCKACGYGGMLDTHHKLC | 3.29
22 | KQTIGNSCKACGYWGMLDTHHKLC | 2.12
23 | KQTIGNSCKACGYLGMLDTHHKLC | 2.96
24 | KQTIGNSCKACGYTGMLDTHHKLC | 3.52

Row | Variant | protein stability index
25 | KQTIGNSCKACGYAGMLDTHHKLC | 2.93
26 | KQTIGNSCKACGYDGMLDTHHKLC | 3.41
27 | KQFIGNSCKACGYRGMLDTHHKLC | 2.86
28 | KQVIGNSCKACGYRGMLDTHHKLC | 2.38
29 | KQNIGNSCKACGYRGMLDTHHKLC | 3.31
30 | KQCIGNSCKACGYRGMLDTHHKLC | 2.92
31 | KQWIGNSCKACGYRGMLDTHHKLC | 2.46
32 | KQAIGNSCKACGYRGMLDTHHKLC | 3.04
33 | KQGIGNSCKACGYRGMLDTHHKLC | 3.15
34 | KQLIGNSCKACGYRGMLDTHHKLC | 3.23
35 | KQRIGNSCKACGYRGMLDTHHKLC | 3.18
36 | KQTIGNSCKACGMRGMLDTHHKLC | 3.32
37 | KQTIGNSCKACGHRGMLDTHHKLC | 2.77
38 | KQTIGNSCKACGNRGMLDTHHKLC | 3.46
39 | KQTIGNSCKACGDRGMLDTHHKLC | 3.03
40 | KQTIGNSCKACGPRGMLDTHHKLC | 2
41 | KQTIGNSCKACGERGMLDTHHKLC | 3.75
42 | KQTIGNSCKACGLRGMLDTHHKLC | 2.94
43 | KQTIGNSCKACGKRGMLDTHHKLC | 3.97
44 | KQTIGNSCKACGYRGMLDKHHKLC | 3.44
45 | KQTIGNSCKACGYRGMLDYHHKLC | 2.71
46 | KQTIGNSCKACGYRGMLDEHHKLC | 3.62
47 | KQTIGNSCKACGYRGMLDVHHKLC | 2.49
48 | KQTIGNSCKACGYRGMLDGHHKLC | 4.05

Row | Variant | protein stability index
49 | KQTIGNSCKACGYRGMVDTHHKLC | 2.6
50 | KQTIGNSCKACGYRGMHDTHHKLC | 3.63
51 | KQTIGNSCKACGYRGMDDTHHKLC | 4.68
52 | KQTIGNSCKACGYRGMSDTHHKLC | 4.24
53 | KQTIGNSCKACGYRGMPDTHHKLC | 3.88
54 | KQTIGNSCKACGYRGMADTHHKLC | 3.66
55 | KQTIGNSCKACGYRGMGDTHHKLC | 3.77
56 | KQTIGNSCKACGYRGMFDTHHKLC | 2.55
57 | KQTIGNSCKACGYRGMEDTHHKLC | 3.98
58 | KQTIGNSCKACGYRGMYDTHHKLC | 3.1
59 | KQTIGNSCKACGYRGMRDTHHKLC | 3.44
60 | KQTIGNSCKYCGYRGMLDTHHKLC | 4.03
61 | KQTIGNSCKNCGYRGMLDTHHKLC | 2.85
62 | KQTIGNSCKGCGYRGMLDTHHKLC | 2.71
63 | KQTIGNSCKHCGYRGMLDTHHKLC | 4.19
64 | KQTIGNSCKVCGYRGMLDTHHKLC | 3.33
65 | KQTIGNSCKSCGYRGMLDTHHKLC | 3.44
66 | KQTIGNSCKRCGYRGMLDTHHKLC | 3.27
67 | KQTIGNSCKTCGYRGMLDTHHKLC | 3.36
68 | KQTDGNSCKACGYRGMLDTHHKLC | 3.95
69 | KQTCGNSCKACGYRGMLDTHHKLC | 3.24
70 | KQTVGNSCKACGYRGMLDTHHKLC | 3.57
71 | KQTLGNSCKACGYRGMLDTHHKLC | 3.73
72 | KQTYGNSCKACGYRGMLDTHHKLC | 3.08

Row | Variant | protein stability index
73 | KQTAGNSCKACGYRGMLDTHHKLC | 3.68
74 | KQTPGNSCKACGYRGMLDTHHKLC | 3.44
75 | KQTQGNSCKACGYRGMLDTHHKLC | 4.17
76 | KQTIGGSCKACGYRGMLDTHHKLC | 3.33
77 | KQTIGFSCKACGYRGMLDTHHKLC | 3.34
78 | KQTIGHSCKACGYRGMLDTHHKLC | 3.03
79 | KQTIGQSCKACGYRGMLDTHHKLC | 3.95
80 | KQTIGLSCKACGYRGMLDTHHKLC | 2.96
81 | KQTIGESCKACGYRGMLDTHHKLC | 3.62
82 | KQTIGCSCKACGYRGMLDTHHKLC | 3.71
83 | KQTIGSSCKACGYRGMLDTHHKLC | 3.24
84 | KQTIGTSCKACGYRGMLDTHHKLC | 3.66
85 | KQTIGISCKACGYRGMLDTHHKLC | 3.84
86 | KQTIGNSCKACGYRGMLPTHHKLC | 2.71
87 | KQTIGNSCKACGYRGMLITHHKLC | 2.24
88 | KQTIGNSCKACGYRGMLTTHHKLC | 2.96
89 | KQTIGNSCKACGYRGMLFTHHKLC | 2.08
90 | KQTIGNSCKACGYRGMLSTHHKLC | 3.22
91 | KQTIGNSCKACGYRGMLETHHKLC | 3.35
92 | KQTIGNSCKACGYRGMLQTHHKLC | 2.29
93 | KQTIGNSCKACGYRGMLLTHHKLC | 2.38
94 | KQTIGNSCKACGYRGMLYTHHKLC | 2.09
